Experimental findings from US20230055235 are described below.

For data set [1], the target named is T1, PD-L1 (programmed death-ligand 1) (Homo sapiens?) (UniProt Q9NZQ7). The data set is described as follows: filter. The settings on record: 37 C.
Data set [2] deals with T1, PD-L1 (programmed death-ligand 1). The data set is described as follows: inhibition. The settings on record: PD-1/PD-L1 binding ELISA. In general terms: ELISA stands for enzyme-linked immunosorbent assay.

T1 sequence (Q9NZQ7 19-238): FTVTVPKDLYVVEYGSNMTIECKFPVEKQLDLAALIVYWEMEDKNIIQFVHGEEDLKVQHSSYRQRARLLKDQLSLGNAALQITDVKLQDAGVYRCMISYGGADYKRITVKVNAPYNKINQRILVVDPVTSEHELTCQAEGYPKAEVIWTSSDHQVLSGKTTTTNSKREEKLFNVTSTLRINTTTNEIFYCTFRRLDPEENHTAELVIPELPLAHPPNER

A word on the Kd: it is the equilibrium constant for the complex coming apart. The low end stands for tighter binding, the high end for weaker binding. In data set [1] (Bz-dU at every n, Bmax 0.06), “GAGTGACCGTCTGCCTGTTAAGCGGCTAAGTTTTTGATTGTACCTTAGTGCCCTTACCAGCCACACCACCAGCC [PL010]” yielded a Kd of 0.93 nM.

By IC50 is commonly meant the concentration that inhibits the measured activity by half. The low end stands for greater potency in that assay, the high end for weaker potency in that assay. “ATGCCGCACGATCGCCCTATTTTGCGAGTTTAC [PL007]” displayed an IC50 in data set [2] (Bz-dU at every n, anti-PD-L1 antibody 1.2 nM) of 4.7 nM.

Regarding “GCCTGATGAAAAGTTTTTGATTGTACCTTAGTGC [PL003]”, in data set [2] (Bz-dU at every n), the IC50 stood at 6.3 nM.

In data set [1] (5-(N-benzylcarboxamide)-2'-deoxyuridine (Bz-dU) at every n, Bmax 0.07), “GAGTGACCGTCTGCCTGATGAAAAGTTTTTGATTGTACCTTAGTGCACTCAACAGTGCAGCCACACCACCAGCC [PL001]” displayed a Kd of 1.1 nM. In addition, the IC50 in data set [2] (5-(N-benzylcarboxamide)-2'-deoxyuridine (Bz-dU) at every n) is 6 nM; in data set [2] (5-(N-benzylcarboxamide)-2'-deoxyuridine (Bz-dU) at every n, repeat experiment) it was 10.5 nM.

In the case of “TGTATGCCGCACGATCGCCCTATTTTGCGAGTTTACTCA [PL006]”, the IC50 in data set [2] (Bz-dU at every n) was found to be 9.6 nM.

Turning to “GCCTGTGTATGCCGCACGATCGCCCTATTTTGCGAGTTTACTCACAGCC [PL005]”, the IC50 in data set [2] (Bz-dU at every n) was 12.6 nM.

As to “GCCTGATGAAAAGTTTTTGATTGTACCTTAGTGCACTCAACAGTGC [PL017]”, the IC50 in data set [2] (Bz-dU at every n) was 4 nM.

Regarding “GAGTGACCGTCTGCCTGTGTATGCCGCACGATCGCCCTATTTTGCGAGTTTAACTGACAGCCACACCACCAGCC [PL028]”, the Kd in data set [1] (Bz-dU at every n, Bmax 0.06) is 1.36 nM.

In data set [1] (Bz-dU at every n, Bmax 0.05, 40 mM HEPES, 102 mM NaCl, 5 mM KCl), “GAGTGACCGTCTGCCTGTGTATGCCGCACGATCGCCCTATTTTGCGAGTTTACTCACAGCCACACCACCAGCC [PL002]” registered a Kd of 0.18 nM. The IC50 in data set [2] (Bz-dU at every n) came to 31.3 nM.

In data set [2] (Bz-dU at every n), ATGAAAAGTTTTTGATTGTACCTTAGTGC [PL004] displayed an IC50 of 7 nM.

Take AAGTTTTTGATTGTACCTTAGTGC [PL009]: the IC50 in data set [2] (Bz-dU at every n) came to 4.6 nM.

Regarding “ATGAAAAGTTTTTGATTGTACCTTAGTGCACTCAACAGTG [PL019]”, in data set [2] (Bz-dU at every n), the IC50 amounted to 15.3 nM.

As to “GAGTGACCGTCTGCCTGCCATTTCCTGCTTGCTCTTCCTCCTTTATTTTTCACCTTTCAGCCACACCACCAGCC [PL029]”, in data set [1] (Bz-dU at every n, Bmax 0.10), the Kd amounted to 243 nM.

“GCCTGATGAAAAGTTTTTGATTGTACCTTAGTGCACTCAACAGTGCAGCC [PL016]” showed an IC50 in data set [2] (Bz-dU at every n) of 3.3 nM.
